Data taken from IntAct's records for PubMed 10466729.

B1: Phytochrome B (Arabidopsis thaliana (Mouse-ear cress)), P14713 (parent)
chain: MVSGVGGSGGGRGGGRGGEEEPSSSHTPNNRRGGEQAQSSGTKSLRPRSNTESMSKAIQQYTVDARLHAVFEQSGESGKSFDYSQSLKTTTYGSSVPEQQITAYLSRIQRGGYIQPFGCMIAVDESSFRIIGYSENAREMLGIMPQSVPTLEKPEILAMGTDVRSLFTSSSSILLERAFVAREITLLNPVWIHSKNTGKPFYAILHRIDVGVVIDLEPARTEDPALSIAGAVQSQKLAVRAISQLQALPGGDIKLLCDTVVESVRDLTGYDRVMVYKFHEDEHGEVVAESKRDDLEPYIGLHYPATDIPQASRFLFKQNRVRMIVDCNATPVLVVQDDRLTQSMCLVGSTLRAPHGCHSQYMANMGSIASLAMAVIINGNEDDGSNVASGRSSMRLWGLVVCHHTSSRCIPFPLRYACEFLMQAFGLQLNMELQLALQMSEKRVLRTQTLLCDMLLRDSPAGIVTQSPSIMDLVKCDGAAFLYHGKYYPLGVAPSEVQIKDVVEWLLANHADSTGLSTDSLGDAGYPGAAALGDAVCGMAVAYITKRDFLFWFRSHTAKEIKWGGAKHHPEDKDDGQRMHPRSSFQAFLEVVKSRSQPWETAEMDAIHSLQLILRDSFKESEAAMNSKVVDGVVQPCRDMAGEQGIDELGAVAREMVRLIETATVPIFAVDAGGCINGWNAKIAELTGLSVEEAMGKSLVSDLIYKENEATVNKLLSRALRGDEEKNVEVKLKTFSPELQGKAVFVVVNACSSKDYLNNIVGVCFVGQDVTSQKIVMDKFINIQGDYKAIVHSPNPLIPPIFAADENTCCLEWNMAMEKLTGWSRSEVIGKMIVGEVFGSCCMLKGPDALTKFMIVLHNAIGGQDTDKFPFPFFDRNGKFVQALLTANKRVSLEGKVIGAFCFLQIPSPELQQALAVQRRQDTECFTKAKELAYICQVIKNPLSGMRFANSLLEATDLNEDQKQLLETSVSCEKQISRIVGDMDLESIEDGSFVLKREEFFLGSVINAIVSQAMFLLRDRGLQLIRDIPEEIKSIEVFGDQIRIQQLLAEFLLSIIRYAPSQEWVEIHLSQLSKQMADGFAAIRTEFRMACPGEGLPPELVRDMFHSSRWTSPEGLGLSVCRKILKLMNGEVQYIRESERSYFLIILELPVPRKRPLSTASGSGDMMLMMPY
partner: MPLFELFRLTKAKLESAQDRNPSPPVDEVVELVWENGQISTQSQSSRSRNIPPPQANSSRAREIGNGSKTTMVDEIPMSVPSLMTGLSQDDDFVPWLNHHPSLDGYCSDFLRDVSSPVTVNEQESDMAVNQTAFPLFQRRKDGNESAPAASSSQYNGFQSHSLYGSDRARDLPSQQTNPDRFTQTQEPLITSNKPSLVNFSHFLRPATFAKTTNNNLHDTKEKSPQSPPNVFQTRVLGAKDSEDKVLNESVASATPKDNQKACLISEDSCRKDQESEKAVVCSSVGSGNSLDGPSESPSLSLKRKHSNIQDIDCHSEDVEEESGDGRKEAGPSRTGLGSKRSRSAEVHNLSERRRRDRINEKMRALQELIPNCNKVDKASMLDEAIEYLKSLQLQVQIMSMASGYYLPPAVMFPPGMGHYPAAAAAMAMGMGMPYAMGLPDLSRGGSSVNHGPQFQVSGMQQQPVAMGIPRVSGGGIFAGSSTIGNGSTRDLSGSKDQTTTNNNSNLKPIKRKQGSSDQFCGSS

Variants of: B1
Details: with pif3_arath PIF3, O80536

| Variant | effect of a mutation on the interaction |
| --- | --- |
| G767R | decreasing interaction |
| E812K | decreasing interaction |
| A750V | decreasing interaction |
